{"source": "patent US10006010B2", "about": "“Cytochrome P450 fusion protein” (The University of York, priority 2014, dated 2018)", "format_in_all_cases": "biochemical", "key": {"[1]": {"experiment": "Enzyme assay on soluble/microsomal preparations of S. cerevisiae expressing STORR fusion or modules, substrate 1,2-dehydroreticuline", "conditions": "soluble or microsomal preparations from S. cerevisiae; 100 μM substrate, 1 mM NADPH, 37° C. 3 hours", "source_text": "Genscript created synthetic DNA sequences were created for PsCPR [Genbank accession AAC05021, (Rosco A. et al. (1997) Arch. Biochem. Biophys. 348, 369-77), the full length STORR (CYP82Y2-Oxidoreductatse (“Oxired”)) protein, the N-terminal CYP82Y2 module and C-terminal oxidoreductase (Oxidoreductase) module, that were codon optimised for expression is Saccharomyces cerevisiae. The codon-optimized sequences are provided with the SEQ ID NO 30-33.\nExpression vector pESC-TRP::soloxired was created by digesting the corresponding PCR product with NotI and PacI and inserting this behind the GAL10 promoter of pESC-TRP. pESC-TRP::CPR was created by digesting the corresponding PCR product with BamHI and XhoI and inserting this behind the GAL1 promoter of pESC-TRP. This was then used to created pESC-TRP::CPR::CYP82Y2 and pESC-TRP::CPR::CYP82Y2-Oxidoreductase. These plasmids were then transformed in S. cerevisiae G175 (Sorger D. et al. (2004) J. Biol. Chem. 279, 31190-6) using lithium acetate protocol (Geitz R. D. and Woods R. A. (2002) Methods in Enzymology 350, 87-96). Yeasts were cultivated in Synthetic Defined (SD) medium composed of 2% carbon source, 0.5% ammonium sulfate, 1.7 g L^−1 yeast nitrogen base (without amino acids and ammonium sulfate) and 1.92 g L^−1 or tryptophan drop-out supplement (Sigma-Aldrich, Gillingham, UK). Cultures grown using glucose as a carbon source were used to inoculate 200 ml cultures with raffinose as a carbon source to an OD 600 nm of 0.10 in 1 L conical flasks. […]\nEnzymes assays were set up in 250 μL volumes containing final concentrations of 50 mM Bis-tris propane buffer, 1 mM NADPH and 100 μM of substrate. […] The extract was then dissolved in 100 μL of 50:50:0.1 hexane/ethanol/diethylamine and analysed by the chiral HPLC method to determine the relative amounts of (R)- and (S)-reticuline.\nPoppy capsules were processed and analysed by UPLC-MS and R-scripts as previously described (“the standard method”; (Winzer T. et al. (2012) Science 336, 1704-8)). […]"}, "[2]": {"experiment": "Recombinant oxidoreductase enzyme assay (E. coli-expressed, purified), substrate codeinone", "conditions": "for nmol product formation at pH 6.0 / nmol product formation at pH 7.0 / nmol product formation at pH 8.0 / nmol product formation at pH 9.0: substrate codeinone", "method": "(§1) The coding sequences of oxidoreductase A and B (Seq ID NO 6 and NO 10, respectively) were codon optimised for expression in E. coli and the synthetic genes were cloned into the vector pET28 to yield a recombinant C-terminal 6×-His tagged enzymes (GenScript, Piscataway, N.J., USA). The constructs were transformed into E. coli Arctic express strain (Agilent Technologies, Wokingham, UK). Per construct, 3-5 freshly transformed Arctic express E. coli colonies were pre-inoculated in 10 mL 2YT medium containing 100 mg/L kanamycin and 20 mg/L gentamycin and incubated at 37° C. overnight. A 5-mL aliquot was used to inoculate 500 mL of the above medium not containing antibiotics and cells were allowed to grow at 30° C. until OD600=0.5-0.7. A 1-mL aliquot of the uninduced cells was removed and spun down at 14,000×g and the cell pellet was lysed in SDS-PAGE sample buffer. 1 mM IPTG was added to the culture and then incubated at 20° C. for 24 h. Cells were then harvested following a 5 min spin at 5,000×g and resuspended in 20 mL ice-cold extraction buffer (0.1 M Tris pH 8, 0.3 M NaCl, 0.1% (v/v) Tween 20 and Halt EDTA-free protease inhibitor cocktail (Pierce/Thermoscientific, Cramlington, UK)). Bacterial suspensions were lysed in a French Press at 4° C. using a 25 kpsi disruption cycle (Model TS0.75 KU, Constant Cell Disruption Systems, Daventry, UK). Cell lysates were then spun down at 12,000×g for 20 min at 4° C. and thus fractionated into supernatant (soluble fraction) and pellet.\n(§2) A 20 mL soluble fraction was filtered through a 0.45 μm syringe filter and the His-tagged proteins were purified using a His Trap Fast Flow crude 5 mL column (GE Healthcare, Little Chalfont, UK) installed in an AKTA Purifier UPC 10 System (GE Healthcare, Sweden) at 4° C. under the following steps: column equilibration in 50 mL 0.1 M Tris pH 8, 0.3 M NaCl, 0.1% (v/v) Tween 20 at 2 mL/min; sample loading at 0.4 mL/min; column wash in 50 mL 0.1 M Tris pH 8, 0.3 M NaCl, 0.1% (v/v) Tween 20, 5 mM imidazole at 2 mL/min; elution in 100 mL 0.1 M Tris pH 8, 0.3 M NaCl, 0.1% (v/v) Tween 20, and a 10-500 mM imidazole gradient at 2 mL/min. Two mL fractions were individually collected. Protein absorbance at 280 nm was monitored throughout the purification procedure. Elution fractions showing absorbance peaks were collected and analysed through SDS-PAGE. Purified proteins (Seq ID NO 3 and 11, respectively) were quantified using Coomassie Plus Protein Assay (Pierce/Thermoscientific, Cramlington, UK) and desalted to remove any inhibitors/interferents using 10 mL Zeba Spin Desalting Columns MWCO 7K, (Pierce/Thermoscientific, Cramlington, UK) pre-equilibrated in 20 mM Potassium Phosphate buffer pH 7.\n(§3) General reaction set up was carried out as previously described (Lenz & Zenk, 1995, FEBS 233:132-139). Substrates (S)-reticuline, 1,2-dehydroreticuline and coclaurine were purchased from TRC Chemicals (Toronto, Canada) and codeinone was supplied by MacFarlan-Smith (Edinburgh, UK). Assay reactions contained […], 5 μg oxidoreductase A or B preparation, 100 mM buffer covering a range of pH values (potassium phosphate pH 6-8, glycine-NaOH pH 9) and 75 μM substrate. Reactions were incubated for 2 h at 37° C. and immediately frozen at −80° C. Reactions were dried down to powder in speedvac Gene Vac EZ-2 plus (Ipswich, UK) at 40° C. and resuspended in 100 μL 1:1 Hexane:Ethanol (v/v), 0.1% Diethylamine (v/v).\nChiral separations were performed following the method previously described (Iwasa et al., 2009, Phytochem 70:198-206) and carried out on a TSP HPLC system equipped with a UV6000 LP detector, a P4000 pump and an AS 3000 autosampler (Thermo Separation Products/Thermoscientific, Waltham, Mass., USA) connected to a mass spectrometer LCQ Classic mass spectrometer (Finnigan Mat, San Jose, Calif., USA). A Lux 5μ Cellulose 3 250×4.6 mm column (Phenomenex, Macclesfield, UK) was used for separations. […]"}, "[3]": {"experiment": "Recombinant oxidoreductase enzyme assay (E. coli-expressed, purified), substrate coclaurine", "method": "as §1, §2\nas §3, with “(v/v). […]” for “(v/v).”"}, "[4]": {"experiment": "Recombinant oxidoreductase enzyme assay (E. coli-expressed, purified), substrate 1,2-dehydroreticuline", "method": "as §1, §2\nas §3, with “(v/v). […]” for “(v/v).”"}, "[5]": {"experiment": "Recombinant oxidoreductase enzyme assay (E. coli-expressed, purified), substrate (S)-reticuline", "method": "as §1, §2\nas §3, with “(v/v). […]” for “(v/v).”"}, "[6]": {"conditions": "NADPH dependent reduction, pH 6 to 9"}, "[7]": {"conditions": "product neopine, triplicate mean ± SD"}}}
{"molecule": "oxidoreductase module: C-terminal oxidoreductase module of STORR (codon optimized SEQ ID NO 33) expressed in S. cerevisiae (protein, Yeast codon optimised Oxidoreductase) MESSGVPVITLGSGKVMPVLGMGTFEKVGKGSERERLAILKAIEVGYRYFDTAAAYETEEVLGEAIAEALQLGLVKSRDELFISSMLWCTDAHADRVLLALQNSLRNLKLEYVDLYMLPFPASLKPGKITMDIPEEDICRMDYRSVWAAMEECQNLGFTKSIGVSNFSCKKLQELMATANIPPAVNQVEMSPAFQQKKLREYCNANNILVSAISVLGSNGTPWGSNAVLGSEVLKKIAMAKGKSVAQVSMRWVYEQGASLVVKSFSEERLRENLNIFDWELTKEDHEKIGEIPQCRILSAYFLVSPNGPFKSQEELWDDEA", "values": [{"measurement": "conversion efficiency of 1,2-dehydroreticuline to (R)-reticuline", "setting": "[1]", "result": 100, "unit": "%"}]}
{"molecule": "Oxidoreductase B: Recombinant His-tagged close homologue (96% amino acid identity) of oxidoreductase A (SEQ ID NO 11), expressed in E. coli (protein, listed as Papaver somniferum, His tag) MESSGVPVITLSSGKLMPVLGMGTFEKVGKGSERERLVILKAIEVGYRYFDTAAAYETEEVLGEAIAEALQLGLIKSRDELFISSMLWCTDAHPDRVLLALQNSLRNLKLEYLDLYMLPFPVSLKPGKITMDIQEEDICRMDYRSVWAAMEECQNLGFTKSIGVSNFSCKKLQELMATANIPPDVNQVEMSPAFQQKKLRDYCNANNILVSAVSILGSNGTPWGSNAVLGSEVLRKIAMAKGKSVAQVSMRWVYDQGASLVVKSFSEERLRENLNIFDWELTKEDHEKIGEIPQCRILSAYFLVSPNGPFKSQEELWDDEA", "values": [{"measurement": "formation of codeine from codeinone (in words)", "setting": "[2]; [6]", "result": "did not form codeine"}, {"measurement": "formation of neopine from codeinone (in words)", "setting": "[2]; [6]", "result": "neopine production within pH values 6 to 8"}, {"measurement": "nmol product formation at pH 6.0", "setting": "[2]; product codeine", "result": 0.0, "unit": "nmol"}, {"measurement": "nmol product formation at pH 7.0", "setting": "[2]; product codeine", "result": 0.0, "unit": "nmol"}, {"measurement": "nmol product formation at pH 8.0", "setting": "[2]; product codeine", "result": 0.0, "unit": "nmol"}, {"measurement": "nmol product formation at pH 9.0", "setting": "[2]; product codeine, triplicate mean ± SD", "result": 0.0, "unit": "nmol"}, {"measurement": "nmol product formation at pH 6.0", "setting": "[2]; [7]", "result": "0.040 ± 0.020", "unit": "nmol"}, {"measurement": "nmol product formation at pH 7.0", "setting": "[2]; [7]", "result": "0.005 ± 0.001", "unit": "nmol"}, {"measurement": "nmol product formation at pH 8.0", "setting": "[2]; [7]", "result": "0.016 ± 0.008", "unit": "nmol"}, {"measurement": "nmol product formation at pH 9.0", "setting": "[2]; product neopine", "result": 0.000, "unit": "nmol"}, {"measurement": "transformation of the substrate coclaurine (in words)", "setting": "[3]; pH 6 to 9", "result": "no transformation of the substrate"}, {"measurement": "nmol product formation at pH 6.0", "setting": "[3]; substrate coclaurine, no product observed, pH 6.0, 75 μM substrate, NADPH, 2 h 37° C., triplicate mean ± SD", "result": 0.0, "unit": "nmol"}, {"measurement": "nmol product formation at pH 7.0", "setting": "[3]; substrate coclaurine, no product observed, pH 7.0", "result": 0.0, "unit": "nmol"}, {"measurement": "nmol product formation at pH 8.0", "setting": "[3]; substrate coclaurine, no product observed, pH 8.0", "result": 0.0, "unit": "nmol"}, {"measurement": "nmol product formation at pH 9.0", "setting": "[3]; substrate coclaurine, no product observed, pH 9.0", "result": 0.0, "unit": "nmol"}, {"measurement": "conversion of 1,2-dehydroreticuline to (R)-reticuline (in words)", "setting": "[4]; pH 6 to 9", "result": "efficiently converted"}, {"measurement": "nmol product formation at pH 6.0", "setting": "[4]; substrate dehydroreticuline, product (R)-reticuline, pH 6.0, triplicate mean ± SD", "result": "0.148 ± 0.036", "unit": "nmol"}, {"measurement": "nmol product formation at pH 7.0", "setting": "[4]; substrate dehydroreticuline, product (R)-reticuline, pH 7.0, triplicate mean ± SD", "result": "0.130 ± 0.021", "unit": "nmol"}, {"measurement": "nmol product formation at pH 8.0", "setting": "[4]; substrate dehydroreticuline, product (R)-reticuline, pH 8.0, triplicate mean ± SD", "result": "0.164 ± 0.020", "unit": "nmol"}, {"measurement": "nmol product formation at pH 9.0", "setting": "[4]; substrate dehydroreticuline, product (R)-reticuline, pH 9.0, triplicate mean ± SD", "result": "0.202 ± 0.026", "unit": "nmol"}, {"measurement": "transformation of the substrate (S)-reticuline (in words)", "setting": "[5]; pH 6 to 9", "result": "no transformation of the substrate"}, {"measurement": "nmol product formation at pH 6.0", "setting": "[5]; substrate (S)-reticuline, expected product dehydroreticuline, pH 6.0", "result": 0.0, "unit": "nmol"}, {"measurement": "nmol product formation at pH 7.0", "setting": "[5]; substrate (S)-reticuline, expected product dehydroreticuline, pH 7.0", "result": 0.0, "unit": "nmol"}, {"measurement": "nmol product formation at pH 8.0", "setting": "[5]; substrate (S)-reticuline, expected product dehydroreticuline, pH 8.0", "result": 0.0, "unit": "nmol"}, {"measurement": "nmol product formation at pH 9.0", "setting": "[5]; substrate (S)-reticuline, expected product dehydroreticuline, pH 9.0", "result": 0.0, "unit": "nmol"}]}
